In patent US20130122566A1, “NOVEL ENZYME PROTEIN, PROCESS FOR PRODUCTION OF THE ENZYME PROTEIN THE SAME, AND GENE ENCODING THE ENZYME PROTEIN THE SAME” (JAPAN TOBACCO INC., priority 2010, published 2013):
Changes are numbered by the printed parent chain. Names may count otherwise.

Key:
[1] = target: T1, Photobacterium phosphoreum strain JT-ISH-467 β-galactoside-α2,3-sialyltransferase N2C0 (ISH467-N2C0), wild type, SEQ ID NO: 2, not containing His×6-Tag (Photobacterium phosphoreum, UniProt A5LHX0); assay: Sialyltransferase kinetics for lactose and CMP-sialic acid, wild-type N2C0 enzyme; assay type: biochemical
T1 sequence (A5LHX0 with tags, fused parts or gaps): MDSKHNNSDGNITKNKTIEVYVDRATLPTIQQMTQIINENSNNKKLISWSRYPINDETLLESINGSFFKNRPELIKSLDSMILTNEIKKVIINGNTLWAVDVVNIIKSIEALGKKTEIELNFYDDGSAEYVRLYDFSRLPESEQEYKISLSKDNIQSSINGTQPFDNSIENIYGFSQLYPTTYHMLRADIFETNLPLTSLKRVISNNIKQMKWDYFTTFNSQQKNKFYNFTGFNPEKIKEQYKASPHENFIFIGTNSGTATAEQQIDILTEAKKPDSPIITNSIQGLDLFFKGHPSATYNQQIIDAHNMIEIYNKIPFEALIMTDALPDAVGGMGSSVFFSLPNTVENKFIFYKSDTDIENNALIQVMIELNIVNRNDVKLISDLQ

[2] = target: T2, Photobacterium phosphoreum strain JT-ISH-467 β-galactoside-α2,3-sialyltransferase N2C0 variant F318AE319A (ISH467-N2C0-F318AE319A); Phe318 and Glu319 of SEQ ID N (Photobacterium phosphoreum, UniProt A5LHX0, E342A/F341A); assay: Sialyltransferase kinetics for lactose and CMP-sialic acid, F318A E319A variant enzyme; assay type: biochemical; conditions: not containing His×6-Tag
T2 sequence (A5LHX0 with tags, fused parts or gaps F341A/E342A): T1 sequence (A5LHX0 with tags, fused parts or gaps) with F318A, E319A
Method: The β-galactoside-α2,3-sialyltransferase activities of variant-type N2C0 proteins (four variants: F318A, E319A, F318AE319A, and S337A) each containing His×6-Tag purified in Example 1 (2) were measured. The sialyltransferase activity was measured by the method as described in J. Biochem., 120, 104-110, (1996) (hereby incorporated by reference in its entirety). […] The enzyme reaction was performed at 30° C. for 5 minutes. After the completion of the reaction, 1.97 mL of 5 mM phosphate buffer (pH 6.8) was added to the reaction solution, which was then applied to a Dowex 1×8 (PO4^3− form, 0.2×2 cm, manufactured by Bio-Rad Laboratories, Inc.) column. The reaction product contained in the eluate (0 to 2 mL) from this column, i.e., the radioactivity contained in sialyllactose was measured to calculate the enzyme activity. One enzyme unit (1 U) is defined as the amount of the enzyme required to release one micromole of sialic acid per minute.

[3] = substrate: CC(=O)N[C@H]1[C@H]([C@H](O)[C@H](O)CO)O[C@](OP(=O)(O)OC[C@H]2O[C@@H](n3ccc(N)nc3=O)[C@H](O)[C@@H]2O)(C(=O)O)C[C@@H]1O; assay: purified protein, by the assay type; conditions: not containing His×6-Tag, 30.0 °C
[4] = substrate: OC[C@H]1O[C@@H](O[C@H]2[C@H](O)[C@@H](O)C(O)O[C@@H]2CO)[C@H](O)[C@@H](O)[C@H]1O; assay: purified protein, by the assay type; conditions: not containing His×6-Tag, 30.0 °C
[5] = substrate: CC(=O)N[C@H]1[C@H]([C@H](O)[C@H](O)CO)O[C@](OP(=O)(O)OC[C@H]2O[C@@H](n3ccc(N)nc3=O)[C@H](O)[C@@H]2O)(C(=O)O)C[C@@H]1O; assay: purified protein, by the assay type; assay type: biochemical, Photobacterium phosphoreum strain JT-ISH-467; conditions: other: E319A variant enzyme, not containing His×6-Tag; 30.0 °C
Method: (§1) The sialyltransferase activity was measured by the method as described in J. Biochem., 120, 104-110, (1996) (hereby incorporated by reference in its entirety). […] The enzyme reaction was performed at 30° C. for 5 minutes. After the completion of the reaction, 1.97 mL of 5 mM phosphate buffer (pH 6.8) was added to the reaction solution, which was then applied to a Dowex 1×8 (PO4^3− form, 0.2×2 cm, manufactured by Bio-Rad Laboratories, Inc.) column. […] One enzyme unit (1 U) is defined as the amount of the enzyme required to release one micromole of sialic acid per minute.

[6] = substrate: OC[C@H]1O[C@@H](O[C@H]2[C@H](O)[C@@H](O)C(O)O[C@@H]2CO)[C@H](O)[C@@H](O)[C@H]1O; assay: purified protein, by the assay type; assay type: biochemical, Photobacterium phosphoreum strain JT-ISH-467; conditions: other: E319A variant enzyme, not containing His×6-Tag; 30.0 °C
Method: as §1

[7] = other: wild-type N2C0 enzyme, pH 6.8
[8] = other: F318A E319A variant enzyme

Molecule: CC(=O)N[C@H]1[C@H]([C@H](O)[C@H](O)CO)O[C@](OP(=O)(O)OC[C@H]2O[C@@H](n3ccc(N)nc3=O)[C@H](O)[C@@H]2O)(C(=O)O)C[C@@H]1O [CMP-sialic acid, cytidine monophosphate (CMP)-sialic acid]
- Vmax [1]: 7.3 nmol/min
- kcat [1]: 21.0 s⁻¹
- Vmax [2]: 8.9 nmol/min
- kcat [2]: 13.3 s⁻¹

Molecule: OC[C@H]1O[C@@H](O[C@H]2[C@H](O)[C@@H](O)C(O)O[C@@H]2CO)[C@H](O)[C@@H](O)[C@H]1O (stereo partly drawn) [Lactose, lactose]
- Vmax [1]: 3.9 nmol/min
- kcat [1]: 11.2 s⁻¹
- Vmax [2]: 7.2 nmol/min
- kcat [2]: 10.8 s⁻¹

B1: Photobacterium phosphoreum strain JT-ISH-467 β-galactoside-α2,3-sialyltransferase N2C0 (ISH467-N2C0), wild type, SEQ ID NO: 2, not containing His×6-Tag … (protein)
chain: T1 sequence (A5LHX0 with tags, fused parts or gaps)
- Km [3, 7]: 0.72 mM
- Km [4, 7]: 8.4 mM

B2: Photobacterium phosphoreum strain JT-ISH-467 β-galactoside-α2,3-sialyltransferase N2C0 variant F318AE319A (ISH467-N2C0-F318AE319A; Phe318 and Glu319 of SEQ ID … (protein)
chain: T1 sequence (A5LHX0 with tags, fused parts or gaps) with F318A, E319A
- Km [3, 8]: 1.59 mM
- Km [4, 8]: 85 mM

B3: Photobacterium phosphoreum strain JT-ISH-467 β-galactoside-α2,3-sialyltransferase N2C0 variant E319A (ISH467-N2C0-E319A; Glu319 of SEQ ID NO: 2 replaced with … (protein)
chain: T1 sequence (A5LHX0 with tags, fused parts or gaps) with E319A
- Km [5]: 0.53 mM
- Vmax [5]: 3.2 nmol/min
- kcat [5]: 106.3 s⁻¹
- Km [6]: 22 mM
- Vmax [6]: 0.012 µmol/min
- kcat [6]: 99.7 s⁻¹
